These results are taken from the supplement of paper PMC10567573.

This data set can be described thus: protein stability index of a GFP-peptide fusion (GPS, HEK-293T) (PSI 1-6); higher = more stable.
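Further: lentivirally expressed fusions sorted by FACS into six bins by GFP to DsRed ratio, PSI derived from sequencing read proportions per bin multiplied by bin number.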

For RDPFECNMCGYHSQDRYEFSSHIT, the protein stability index (parent: IOH9679_75, c terminus: a fixed tail appended) was determined as 1.89.

YHTGKTPFVCPECGQPCSQKSGLI: the protein stability index (parent: IOH7272_62, c terminus: a fixed tail appended) amounted to 1.66.

For MTKAQESLTLEDVAVDFTWEEWQF, the protein stability index (parent: IOH7272_1, c terminus: a fixed tail appended) was determined as 3.04.

Regarding SDYISEFRFAPNHTKELEDKVIEL, for the setting “parent: IOH6638_42, c terminus: a fixed tail appended”, the protein stability index worked out at 2.07.

MYKLSSEQFHEAASKMESTIKPRR [CHCHD6 WT]: under “parent: IOH6589_29, c terminus: a fixed tail appended”, the protein stability index turned out to be 3.65.

With RPFDCPVCNKKFKMKHHLTEHMKT, where the note is “parent: IOH10718_86, c terminus: a fixed tail appended”, the protein stability index came out at 2.37.

Turning to HTGLKPYECGVCAKKFMWRDSFMR, the protein stability index (parent: IOH10718_90, c terminus: a fixed tail appended) was determined as 2.3.

For the protein GSKFRYSGRTQAQTRRASALIDRP, under “parent: IOH6638_68, c terminus: a fixed tail appended”, the protein stability index worked out at 3.09.

Consider AVLAASSPYFHDQVLLKGMTSISL, for which the protein stability index (parent: IOH10718_13, c terminus: a fixed tail appended) worked out at 2.63.

In the case of VKKSCWTEEEDRIICEAHKVLGNR, the protein stability index (parent: IOH6886_23, c terminus: a fixed tail appended) amounted to 3.18.

Consider YHNSPAYLAYINAKSRAEAALEEE [SMARCE1 WT], for which the protein stability index (parent: IOH7424_23, c terminus: a fixed tail appended) came to 2.1.

With NNSWIRKNSTMVNSEDIFLLLCLK, for the setting “parent: IOH10304_60, c terminus: a fixed tail appended”, the protein stability index was determined as 2.69.

Turning to RAQMIRNEYRKLHPVLHKEEKQHL, the protein stability index (parent: IOH10304_30, c terminus: a fixed tail appended) worked out at 3.05.

Turning to SELGDYDPDECGSDYISEFRFAPN, the protein stability index (parent: IOH6638_40, c terminus: a fixed tail appended) was 1.93.

Consider LFVTVTAVNLSVSTLPSLREEEEQ, for which, under “parent: IOH6461_40, c terminus: a fixed tail appended”, the protein stability index was 2.13.

With LTEHKRIHTGKKPHVCSLCGKAFY, the protein stability index (parent: IOH7272_33, c terminus: a fixed tail appended) was 2.52.

Consider GPGFHAGTSALWRHLRSAHRRELE, for which, under “parent: IOH6801_14, c terminus: a fixed tail appended”, the protein stability index was determined as 2.28.

For the protein IAKHLKGRLGKQCRERWHNHLNPE, the protein stability index (parent: IOH6886_19, c terminus: a fixed tail appended) was found to be 1.82.

For FSSSSQEAFAASAVGSGERRGGGP, the protein stability index (parent: IOH10718_37, c terminus: a fixed tail appended) is 3.33.

For KSPIAPCSLDKRVILIFHCEFSSE, the protein stability index (parent: IOH6456_79, c terminus: a fixed tail appended) stood at 2.62.

For SMQCKVILLDGSEYTCDVEKRSRG, the protein stability index (parent: IOH6638_19, c terminus: a fixed tail appended) came out at 2.79.

Turning to KSCQACRLRKCYEVGMVKCGSRRE [ESR2 WT], the protein stability index (parent: IOH10714_34, c terminus: a fixed tail appended) turned out to be 1.85.

Turning to ELKTFRLKTRSWAGERSRRELCSR, the protein stability index (parent: IOH6456_93, c terminus: a fixed tail appended) turned out to be 3.35.

Regarding REQADSCREQLDIMNDLSNRVWSI, for the setting “parent: IOH6488_25, c terminus: a fixed tail appended”, the protein stability index stood at 2.18.

In the case of YQAGKPDALTKLEQGEPLWTLEDE, the protein stability index (parent: IOH7272_9, c terminus: a fixed tail appended) was found to be 4.34.

Turning to FPNRTDQQCQYRWLRVLNPDLVKG, where the note is “parent: IOH6886_11, c terminus: a fixed tail appended”, the protein stability index amounted to 2.01.

FRFAPNHTKELEDKVIELHKSHRG: for the setting “parent: IOH6638_43, c terminus: a fixed tail appended”, the protein stability index was 2.13.

For the protein FVEDSFDPNINPTIGASFMTKTVQ [RAB22A WT], the protein stability index (parent: IOH10004_5, c terminus: a fixed tail appended) is 2.26.

Consider LDMDEGTLSFIVDGQYLGVAFRGL [SPSB4 WT], for which, under “parent: IOH6956_31, c terminus: a fixed tail appended”, the protein stability index is 2.49.

As for TYWEHWTSQGQVRMRLFGQRCQKC, the protein stability index (parent: IOH10686_13, c terminus: a fixed tail appended) amounted to 1.83.

Take AFGWFRCSSCQRSWASAQVQILCH: the protein stability index (parent: IOH10686_9, c terminus: a fixed tail appended) came out at 2.29.

DECEKAYFYMSCLVKHKRIHSREK: for the setting “parent: IOH7272_73, c terminus: a fixed tail appended”, the protein stability index amounted to 2.53.

For IMALVAAILLLVIIILIVMKYRT, the protein stability index (parent: IOH7463_24, c terminus: native) is 2.83.

For FSPSQFLNFWNKQDTLELESPSLT, the protein stability index (parent: IOH6886_76, c terminus: a fixed tail appended) is 2.12.

Turning to YQEIFQQLQRSWVKMDQKSKHLKE, the protein stability index (parent: IOH10304_35, c terminus: a fixed tail appended) turned out to be 2.05.

Turning to HRRGLGVDSKPELQRVLEHRRRNQ, for the setting “parent: IOH10203_10, c terminus: a fixed tail appended”, the protein stability index worked out at 3.91.

For the protein QARLRDVSRREGALGWAPAAPPPL, the protein stability index (parent: IOH6801_33, c terminus: a fixed tail appended) came to 3.31.

As to FAPQTGARPSETFARFCKSQESAL [C19orf51 WT], under “parent: IOH10770_74, c terminus: a fixed tail appended”, the protein stability index was 2.22.

On to AVNLSVSTLPSLREEEEQVRAHAP, for which the protein stability index (parent: IOH6461_41, c terminus: a fixed tail appended) worked out at 5.01.

In the case of FLRQLPFRGDDGIFDDNFIEERKQ [SNX3 WT], the protein stability index (parent: IOH7529_17, c terminus: a fixed tail appended) came to 3.4.

For the protein LQRVLEHRRRNQLIKKKKEELEAK, the protein stability index (parent: IOH10203_12, c terminus: a fixed tail appended) was found to be 3.41.

YHSQDRYEFSSHITRGEHRFHMS: the protein stability index (parent: IOH9679_77, c terminus: native) stood at 2.09.

On to NRFRVEISFHFEVTNHNIRLFEDV, for which the protein stability index (parent: IOH10304_48, c terminus: a fixed tail appended) amounted to 2.93.

As for KKFLTLGSKFRYSGRTQAQTRRAS, where the note is “parent: IOH6638_67, c terminus: a fixed tail appended”, the protein stability index is 2.96.

Take LVAHQRYHTGKTPFVCPECGQPCS: the protein stability index (parent: IOH7272_61, c terminus: a fixed tail appended) was 3.29.

Consider HIKLHSGEKPFKCHLCNYACRRRD, for which, for the setting “parent: IOH9679_28, c terminus: a fixed tail appended”, the protein stability index was determined as 1.92.

With TYECRCIGEEKEMWNFGEKYARF [TIA1 WT], the protein stability index (parent: IOH10042_33, c terminus: native) is 1.9.

Consider EHERAHRGEKPHGCSLCGKAFYKR, for which the protein stability index (parent: IOH7272_38, c terminus: a fixed tail appended) came out at 2.1.

For TSGKRYVYRFVCDLQNLLGFTPEE [ETS2 WT], the protein stability index (parent: IOH10422_73, c terminus: a fixed tail appended) stood at 2.7.

As for DMRDPTYRPLKQELQGLDYCKPTR [SPSB1 WT], the protein stability index (parent: IOH10100_3, c terminus: a fixed tail appended) was 3.17.

YARTPTLDPDTMHARLRLSADRLT: where the note is “parent: IOH6488_45, c terminus: a fixed tail appended”, the protein stability index turned out to be 2.62.

Turning to FLRGPSGPRFGPRNDKIKHVQNQV, the protein stability index (parent: IOH7463_7, c terminus: a fixed tail appended) came to 2.7.

In the case of FCDMDKSLLCLLCSNSQEHGAHKH, the protein stability index (parent: IOH10304_18, c terminus: a fixed tail appended) was found to be 1.87.
